Measurements: the supplement of paper PMC11136658

Test system: peptide library, one residue held at a place counted from the Y acceptor
Assay: relative phosphorylation of the sub-library (ratio to the mean residue at this position); higher = residue favoured
Procedure, shortened: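 Peptide library mixtures, biotinylated and centred on Tyr, each fixed one residue at one position from −5 to +5. Purified recombinant kinases were incubated with them for 90 min in 384-well plates alongside 50 μM ATP and γ-32P-ATP, and the captured, rinsed peptides on streptavidin membranes were measured by phosphorimaging and ImageQuant. Normalization divided each position's intensities by the sum of its 18 randomized residues (16 for the Ser/Thr-free library) and multiplied by that number, so that values give phosphorylation relative to the mean randomized residue.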

Chain of TYRO3, construct: aa455-end, human (Q06418 455-890, looked up): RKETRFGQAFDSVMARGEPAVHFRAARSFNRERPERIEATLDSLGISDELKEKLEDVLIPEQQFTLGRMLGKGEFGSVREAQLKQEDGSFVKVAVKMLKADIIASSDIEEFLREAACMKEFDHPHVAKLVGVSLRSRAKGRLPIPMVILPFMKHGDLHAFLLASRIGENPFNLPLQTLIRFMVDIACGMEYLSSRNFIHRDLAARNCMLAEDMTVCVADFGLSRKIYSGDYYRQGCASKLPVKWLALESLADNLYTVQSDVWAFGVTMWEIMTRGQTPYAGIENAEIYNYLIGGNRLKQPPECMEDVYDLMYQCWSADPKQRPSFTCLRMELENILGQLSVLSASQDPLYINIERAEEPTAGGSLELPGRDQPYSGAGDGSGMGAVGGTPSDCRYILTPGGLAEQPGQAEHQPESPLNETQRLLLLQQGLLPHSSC
Chain of EPHA2, construct: aa561-end, human (P29317 561-976, looked up): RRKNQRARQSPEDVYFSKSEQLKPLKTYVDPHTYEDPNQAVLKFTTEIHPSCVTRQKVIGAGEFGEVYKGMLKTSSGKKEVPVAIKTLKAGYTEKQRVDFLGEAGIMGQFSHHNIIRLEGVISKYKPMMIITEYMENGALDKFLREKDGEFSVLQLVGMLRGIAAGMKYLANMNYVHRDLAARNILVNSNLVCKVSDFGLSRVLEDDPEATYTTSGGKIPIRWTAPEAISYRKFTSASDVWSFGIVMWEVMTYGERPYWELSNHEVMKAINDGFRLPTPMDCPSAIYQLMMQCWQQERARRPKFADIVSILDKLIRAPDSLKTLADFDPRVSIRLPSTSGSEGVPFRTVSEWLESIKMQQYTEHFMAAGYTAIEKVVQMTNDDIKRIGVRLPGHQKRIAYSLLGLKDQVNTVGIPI

EPHA2, construct: aa561-end, human (from UniProt P29317)
relative phosphorylation
Settings	at +1	at +2	at +3	at +4	at +5	at -1	at -2	at -3	at -4	at -5
A fixed	1.31	0.627	0.592	0.785	0.992	0.392	1.11	0.791	1.04	0.971
D fixed	0.849	1.83	0.379	0.913	1.26	3.48	1.25	1.54	1.25	1.23
E fixed	2.74	2.13	0.34	1.28	1.22	2.02	1.74	1.76	1.41	1.03
F fixed	0.725	1.35	1.4	1.13	1.1	0.943	0.617	1.32	1.09	1.12
G fixed	0.517	0.298	0.508	1.15	1.15	0.198	1.22	0.847	1.26	1.15
H fixed	1.65	0.815	0.725	1.29	0.993	0.836	0.817	1.06	0.843	0.916
I fixed	1.84	1.08	3.27	0.777	0.778	1.92	0.914	0.914	0.999	1.04
K fixed	0.165	0.339	0.183	0.567	0.616	0.17	0.657	0.502	0.737	0.873
L fixed	0.892	0.944	1.84	0.662	0.877	1.83	0.82	0.873	1.05	1.05
M fixed	1.62	0.988	1.64	0.989	0.87	0.733	0.654	0.809	0.986	0.978
N fixed	0.322	1.07	0.395	0.718	0.8	1.83	1.3	1.07	0.802	1.06
P fixed	0.15	0.54	1.33	1.52	1.67	0.257	1.24	1.08	1.07	0.972
Q fixed	0.852	0.723	0.628	0.844	0.773	0.351	1.01	0.774	1.05	0.986
R fixed	0.18	0.481	0.262	0.692	0.613	0.219	0.832	0.607	0.871	0.92
S fixed	0.61	0.691	0.426	1.02	1.02	0.366	1.39	0.923	0.815	0.835
T fixed	0.783	0.816	0.621	0.886	1.22	0.931	1	0.903	0.79	0.827
V fixed	1.81	1.05	2.07	0.759	0.827	0.974	0.838	0.888	0.802	0.9
W fixed	0.979	2.23	1.4	2.02	1.21	0.554	0.61	1.34	1.12	1.15
pThr fixed	2.09	2.85	0.454	1.09	0.852	3.53	0.956	0.833	1.22	1.26
pTyr fixed	3.93	7.03	1.08	1.44	1.31	4.75	1.15	1.43	1.54	1.4

TYRO3, construct: aa455-end, human (from UniProt Q06418)
relative phosphorylation
Settings	at +1	at +2	at +3	at +4	at +5	at -1	at -2	at -3	at -4	at -5
A fixed	1.64	0.682	0.632	0.906	1.04	0.893	0.982	1	1.15	0.987
D fixed	0.676	0.549	0.322	0.681	0.669	0.66	0.935	1.1	1.03	1.01
E fixed	1.19	0.767	0.252	0.729	0.592	0.56	1.04	1.28	1.19	0.874
F fixed	1.07	1.28	1.44	1.11	0.885	1.23	0.653	0.819	0.883	0.866
G fixed	0.816	0.424	0.71	1.2	1.26	0.524	1.3	1.18	1.35	1.2
H fixed	1.12	0.864	1.36	1.16	0.955	1.4	1.09	1.09	0.966	1.05
I fixed	0.991	1.12	1.58	0.796	0.758	1.63	0.772	0.656	0.826	0.854
K fixed	0.534	1.1	1.03	1.18	1.39	0.719	1.14	0.998	1.04	1.16
L fixed	0.938	1.36	1.19	0.932	0.867	1.88	0.858	0.752	0.843	0.892
M fixed	1.26	1.22	1.18	1.04	0.868	1.09	0.7	0.866	0.864	0.964
N fixed	0.544	0.901	0.626	0.843	1.01	1.03	1.25	1.16	0.956	1.19
P fixed	0.412	0.657	0.864	1.18	1.62	0.821	1.09	1.27	1.3	1.19
Q fixed	1.13	0.962	0.795	1.07	0.936	0.837	1.23	1.06	1.22	1.06
R fixed	0.597	1.13	1.2	1.28	1.33	0.655	1.04	0.959	1.06	1.19
S fixed	1.25	0.799	0.718	1.01	1.06	0.849	1.28	1.2	0.866	0.977
T fixed	1.2	0.996	0.808	0.85	0.982	1.07	1.13	1.09	0.775	0.884
V fixed	1.37	1.21	1.26	0.876	0.831	1.16	0.868	0.755	0.803	0.785
W fixed	1.25	1.98	2.04	1.16	0.946	1	0.649	0.764	0.888	0.868
pThr fixed	1.04	0.889	0.217	0.396	0.43	0.664	0.826	0.977	0.895	0.854
pTyr fixed	0.911	1.28	0.324	0.56	0.399	1.06	0.954	1.2	1.12	0.96
